Experimental findings from patent US20200048312A1 are described below.

The target in assay [1] is antibodies of human serum sample 16CDV61275 (Zika IgG) (human). Kind of assay: blocking of wing DAGS ECL signal.
The target of assay [2] is antibodies of human serum sample 16CDV61197 (Zika IgG positive) (human). Kind of assay: blocking of wing DAGS ECL signal.
The target of assay [3] is antibodies of human serum sample 16CDV61278 (Zika IgG positive) (human). The assay can be described thus: blocking of wing DAGS ECL signal.
Assay [4] deals with antibodies of human serum sample 16CDV61275 (Zika IgG) (human). Kind of assay: blocking of ß-ladder DAGS ECL signal.
In assay [5] the target is antibodies of human serum sample 16CDV61197 (Zika IgG positive) (human). Kind of assay: blocking of ß-ladder DAGS ECL signal.
The target of assay [6] is antibodies of human serum sample 16CDV61278 (Zika IgG positive) (human). Kind of assay: blocking of ß-ladder DAGS ECL signal.

B1: Dengue virus type 4 NS1 full length (protein)
chain: DTGCAVSWSGKELKCGSGIFVIDNVHTWTEQYKFQPESPARLASAILNAHEDGVCGIRSTTRLENIMWKQITNELNYVLWEGGHDLTVVAGDVKGVLSKGKRALAPPVNDLKYSWKTWGKAKIFTPEAKNSTFLIDGPDTSECPNERRAWNFLEVEDYGFGMFTTNIWMKFREGSSEVCDHRLMSAAIKDQKAVHADMGYWIESSKNQTWQIEKASLIEVKTCLWPKTHTLWSNGVLESQMLIPKAYAGPFSQHNYRQGYATQTVGPWHLGKLEIDFGECPGTTVTIQEDCDHRGPSLRTTTASGKLVTQWCCRSCTMPPLRFLGEDGCWYGMEIRPLSEKEENMVKSQVSA
B1: the Blocking [%] in assay [1] was 2.48%; in assay [2], 0.891%; in assay [3], 4.5%; in assay [4], 25.1%; in assay [5], 31.6%; in assay [6], 2.6%. For the same molecule, the Normalized to Zika Blocking [%] was 3.3% in assay [1]; 1.2% in assay [2]; 4.9% in assay [3]; 27.3% in assay [4]; 50.3% in assay [5]; 3.7% in assay [6].
